# Test results taken from patent publication US12570709B2, “Self-assembling peptide amphiphiles displaying a transforming growth factor beta 1 (TGF-ß1) mimetic epitope” (Northwestern University, priority 2021, dated 2026).
# Bridge positions count the residues as written; N and C are the ends. Ends that are not written are not given here. I, II: the chains in the order shown. * marks the point of attachment. Palmitoyl = CCCCCCCCCCCCCCCC(=O)*
# Assays:
# [1] = Cryo-TEM of PA nanostructures; format: physicochemical; conditions: 10 mol % co-assembly with diluent backbone PA
# Experimental: 300-mesh copper grids with lacey carbon film (Electron Microscopy Sciences) were glow discharged for 30 seconds in a PELCO easiGlow system (Ted Pella, Inc.). PA solutions were prepared as previously described and then diluted to 1 mM in water before imaging. 7 μL of PA solution was placed onto grids, blotted, and plunge-frozen in liquid ethane using an FEI Vitrobot Mark IV (FEI), maintained at 95-100% humidity. While submerged in liquid nitrogen, vitrified samples were transferred to a Gatan 626 cryo-holder (Gatan) and imaged on a JEOL 1230 TEM operating at 100 kV accelerating voltage. Liquid nitrogen temperatures were maintained during imaging, and micrographs were captured with a Gatan 832 CCD camera.
# [2] = tested on: human chondrocytes encapsulated in PA hydrogels; assay: F-actin ICC and confocal microscopy of chondrocytes encapsulated in PA gels; format: cell-based; conditions: three days in vitro
# Experimental: Fixed samples were permeabilized and blocked in a solution of 0.1% (v/v) Triton X-100 and 1% normal horse serum (Invitrogen) for 2 hours at room temperature. Samples were incubated with primary antibodies overnight at 4° C. The following primary antibodies were used: rabbit anti-Sox9 (1:500, Abcam), mouse anti-Aggrecan (1:500, ThermoFisher), mouse anti-Collagen II (1:500, ThermoFisher), and mouse anti-Nuclei (1:500, Sigma-Aldrich). The next day, samples were incubated with AlexaFluor 488 secondary antibody, AlexaFluor 555 secondary antibody, Phalloidin AlexaFluor 488, and/or Phalloidin AlexaFluor 633 (1:1000, Invitrogen) for 2-3 h at room temperature. For 2D cell culture, samples were then incubated with DAPI (1:1000, Invitrogen) for 10 minutes at room temperature. If not already on a glass coverslip, samples were mounted with Immu-Mount (Thermo Scientific) and imaged on a Nikon A1R Spectral microscope. Image analysis was performed using ImageJ software.
# Chondrocytes were trypsinized and resuspended in growth media for counting, and then pelleted and resuspended to 6×10^7 cells/mL in growth media. The cell solution was mixed 1:2 v/v with sterile PA solution prepared at 3 wt % in 30 mM NaCl. For gels also encapsulating rhTGF-β1 protein (R&D Systems), soluble protein was added to PA solutions after thermal annealing. 120 μL of PA/cell solution was mixed thoroughly by pipetting gently and then placed into PDL-coated 12-well chamber slides (Ibidi). Sterile gelling solution, comprised of 110 mM NaCl, 3 mM KCl, and 25 mM CaCl2, was pipetted dropwise on top of the PA/cell solution and the gels were incubated for 30 minutes at 37° C. Following incubation, excess gelling solution was removed and 250 μL of growth media was added to each well. The media was removed after 3 days for LDH viability assays as described above. For ICC, after 3 days of in vitro culture, gels were fixed in 4% paraformaldehyde for 30 minutes at room temperature.
# [3] = Transverse-relaxation (T2) NMR spectroscopy of PA assemblies; format: physicochemical; conditions: TGF PA co-assembled at 10 mol % with diluent backbone PA
# Experimental: NMR spectra were acquired at 600 MHz on a Brucker Neo system with QCI-F cryoprobe. NMR spectra for PAs were recorded at 25° C. using TFA-d, H2O/D2O in 9/1 ratio (D2O contains 0.05 wt. % 3-(trimethylsilyl) propionic-2,2,3,3-d4 acid, sodium salt) as solvents. Chemical shifts are reported in part per million (ppm). The […] was 15 μs and typical spectra required 32 scans.
# The spin-spin relaxation rates were measured using the Carr-Purcell-Gill-Meiboom pulse sequence with a delay time of 0.2 ms in a variable loop. The peak intensity data was fit to and exponential in the form:
# [formula] where τ is the length of the delay time, R2 is the spin-spin relaxation rate and b are the baseline.^2 Cell Culture
# [4] = tested on: collagen II, COMP, aggrecan and Sox9 in human chondrocytes; assay: Western blot of ECM proteins after three days treatment; format: cell-based; conditions: 10 μM, three days in vitro
# Experimental: For western blot of 4 h PA treatments, cells were seeded in 6-well plates at a density of 600,000 cells/well and cultured for 24 h. […] Cells were then treated with PA in solution for 4 h in vitro. For western blot of 3-day PA treatments, cells were seeded in 6-well plates at a density of 230,000 cells/well and cultured for 24 h. Cells were then treated with PA in solution for 3 days in vitro.
# Protein was extracted from cells using Halt Protease and Phosphatase Inhibitor Cocktail (Thermo Scientific) and a BCA assay (Thermo Scientific) was performed to determine protein content of each sample. Cell protein was loaded into and separated using a 4-20% SDS-PAGE gel (Bio-Rad). It was then electrotransferred from the gel to a nitrocellulose membrane (Bio-Rad). The membranes were blocked with 10% milk solution (Bio-Rad) for 30 minutes followed by an overnight incubation with primary antibodies at 4° C. The following primary antibodies were used: rabbit anti-pSmad2 (1:1000, Cell Signaling), rabbit anti-Smad2 (1:1000, Cell Signaling), rabbit anti-Sox9 (1:500, Abcam), mouse anti-Aggrecan (1:500, ThermoFisher), rabbit anti-COMP/Cartilage oligomeric matrix protein (1:500, Abcam), mouse anti-Collagen II (1:500, ThermoFisher), and mouse anti-Actin (1:1000, Novus Bio). Membranes were then incubated with their corresponding secondary HRP-conjugated antibodies (1:1000, ThermoFisher). Protein signals were detected using Radiance Bioluminescent ECL substrate (Azure Biosystems). Densitometry analysis, standardized to total receptor content or actin as a control for protein loading, was performed using ImageJ software. For quantification, experimental triplicate samples were analyzed, and two different experiments were conducted.
# [5] = Rheology of PA hydrogels (strain sweep, G′/G″ crossover); format: physicochemical; conditions: PA gels, 10 mol % co-assemblies
# Experimental: Gels were made using 2 wt % PA solutions prepared as previously described, using 10 mol % co-assemblies of epitope PA with diluent PA. 12-well chamber slides (Ibidi) were coated with 0.01 mg/mL poly-D-lysine (Sigma-Aldrich) solution and incubated overnight at 37° C. The wells were washed three times with water and air-dried for at least 30 minutes. 120 μL of PA solution was pipetted evenly into the well and gelling solution comprised of 110 mM NaCl, 3 mM KCl, and 25 mM CaCl2 was pipetted dropwise on top of the PA solution. The gels were incubated at 37° C. for 30 minutes, and then excess gelling solution was removed.
# Measurements were performed on an Anton Paar MCR302 rheometer with a 25 mm parallel-plate fixture. 120 μL of the PA/HA hybrid slurry was placed on the bottom plate and 30 μL of a 50 mM CaCl2/75 mM NaCl gelling solution was placed on the upper fixture. The fixture was lowered to a gap of 0.5 mm for 10 min during which time a 0.1% oscillatory strain was applied with a 10 rad/s angular frequency. The gap height was allowed to vary to keep the normal force at 0 N. Next, a strain sweep was performed at 10 rad/s from 0.1% to 100% strain to measure the strain to break the gel.
# [6] = tested on: C28/I2 human articular chondrocytes
# Experimental: PA solutions (backbone PA, TGF PA, ln TGF PA, and peptide only) were prepared at 1 wt % as previously described, under sterile conditions. For cell treatments lasting <24 h, PA treatment solutions or native rhTGF-β1 protein (R&D Systems) were diluted in starvation medium, which comprised of DMEM High Glucose Medium (Gibco) supplemented with 0.5% fetal bovine serum (Denville Scientific), 100 U/mL penicillin, and 100 μg/mL streptomycin (Gibco). For cell treatments lasting 24 h or more, PA treatment solutions or native rhTGF-β1 protein (R&D Systems) were diluted in complete growth medium. PA solutions were prepared at a range of concentrations, 1, 10, 50, and 100 μM, where the concentration refers to the concentration of the epitope PA.
# For cell viability assays, cells were seeded in 48-well plates at a density of approximately 15,400 cells/well and cultured for 24 h. Cells were then treated with PA in solution for 24 h or 3 days in vitro.
# For 2D viability assays, cells were cultured and treated with PA solutions in vitro as previously described. After 24 h or 3 days of culture, cells were washed with HBSS (Gibco), and media was exchanged with HBSS containing 2 μM Calcein AM (Invitrogen) and 100 ng/mL propidium iodide (Sigma-Aldrich) for 30 minutes at 37° C. Cells were washed with HBSS and imaged.
substance,measurement,setting,value
TGF PA-a: backbone PA-a (SEQ ID NO: 7) conjugated to cyclic TGF-β1 mimetic peptide (SEQ ID NO: 1) by a linker; co-assembled with diluent Backbone PA-a (chain Palmitoyl-AAEEK-OH; peptide CESPLKRQC; disulfide II:1-II:9; not fully specified (some residues); also: co-assembled with diluent backbone PA-a),width of ribbon-like nanostructures,[1],50-60 nm
same,morphology and distribution of encapsulated cells,[2],"compact, elliptical morphologies and were well-dispersed"
same,cells within the bulk of the gel,[2]; equal concentrations of cells encapsulated,remained inside the gels and survived three days in vitro
same,"relaxation rate for the alkyl tail protons, compared with TGF PA-b assemblies",[3],nearly five times higher
same,"ECM synthesis (collagen II, COMP, aggrecan, Sox9)",[4],upregulated ECM synthesis significantly more than all other PA treatments
same,levels of collagen II compared with native rhTGF-β1 protein,[4],significantly higher levels of collagen II
same,G′/G″ crossover % strain,[5],5.80 ± 1.40%
same,G′/G″ crossover storage modulus,[5],0.63 ± 1.14 kPa
same,biocompatibility compared with corresponding Backbone PA-b systems,[6],higher biocompatibility
